Measured values: publication PMC4821807, “Estrogen receptor alpha somatic mutations Y537S and D538G confer breast cancer endocrine resistance by stabilizing the activating function-2 binding conformation” (eLife, 2016)
Read-outs that look alike come from different tables or passages of the source.

How the values were obtained:
[1] = biological target: D538G estrogen receptor α ligand-binding domain (ERα amino acids 304–554), 6×His fusion, biotin-labelled at C417 (human) (UniProt P03372); experiment: FRET or BRET; time-resolved FRET, SRC titration, ER pre-saturated with 1 µM E2: SRC3-fluorescein titrated from 3.2×10^-7 to 3.2×10^-12 M into 1 nM biotinylated ERα LBD on 0.25 nM streptavidin-terbium
[2] = biological target: wild type estrogen receptor α ligand-binding domain (ERα amino acids 304–554), 6×His fusion, biotin-labelled at C417 (human) (UniProt P03372); experiment: as above
[3] = biological target: Y537S estrogen receptor α ligand-binding domain (ERα amino acids 304–554), 6×His fusion, biotin-labelled at C417 (human) (UniProt P03372); experiment: as above
[4] = biological target: D538G estrogen receptor α ligand-binding domain (ERα amino acids 304–554), 6×His fusion, biotin-labelled at C417 (human) (UniProt P03372); experiment: FRET or BRET; time-resolved FRET, SRC titration, no ligand (apo): SRC3-fluorescein titrated from 3.2×10^-7 to 3.2×10^-12 M into 1 nM biotinylated ERα LBD on 0.25 nM streptavidin-terbium; 96-well plates
[5] = biological target: Y537S estrogen receptor α ligand-binding domain (ERα amino acids 304–554), 6×His fusion, biotin-labelled at C417 (human) (UniProt P03372); experiment: as above
[6] = tested on: D538G mutant ERα; set-up: method as in Toy et al., 2013; conditions: breast cancer cells, ref Toy et al., 2013; cited from earlier work
[7] = tested on: Y537S mutant ERα; set-up: method as in Toy et al., 2013; conditions: breast cancer cells, ref Toy et al., 2013; cited from earlier work
[8] = biological target: the molecule itself; experiment: crystal structure; D538G ERα LBD with 1 mM E2 and a 2.5-fold molar excess of GRIP peptide; hanging drop, 25% PEG 3,350, 200 mM MgCl2, 100 mM Tris pH 8.5, 1 mM phenylalanine
[9] = biological target: D538G ERα LBD (Homo sapiens, UniProt P03372, D538G, form not given); assay type: binding; conditions: for Kd: read-out: SRC-3 NRD Kd
Description: (§1) While bound to the Ni-NTA-agarose resin (Qiagen Inc., Santa Clarita, CA), the ERs were labeled with MAL-dPEG4-biotin (Quanta BioDesign, Powell, OH), site-specifically at C417. The SRC3-NRD construct has 4 cysteines and was labeled non-specifically, also while on the resin, with 5-iodoacetamido fluorescein (Molecular Probes, Invitrogen, Eugene, OR).
(§2) Diffusion-enhanced FRET was determined by a parallel incubation without biotinylated ER-LBD and subtracted as a background signal. […] The data, representing 2–3 replicate experiments, each with duplicate points, were analyzed using GraphPad Prism 4 and are expressed as the EC50 in nM.

[10] = biological target: Y537S ERα LBD (Homo sapiens, UniProt P03372, Y537S, form not given); assay type: binding; conditions: for Kd: read-out: SRC-3 NRD Kd
Description: as §1, §2

[11] = biological target: WT ERα LBD (Homo sapiens, UniProt P03372); assay type: binding; conditions: for SRC-3 NRD Kd: WT apo (absence of E2)
Description: as §1, §2

Molecule: steroid receptor coactivator 3 nuclear receptor domain (amino acids 627–829), fluorescein-labelled (from UniProt Q9Y6Q9 627-829) (domain or fragment)
- Kd [1]: 3.65 nM
- Kd [2]: 2.67 nM
- Kd [3]: 0.59 nM
- Kd [4]: 151 nM
- Kd [5]: 13.6 nM

Molecule: CC/C(=C(\c1ccc(O)cc1)c1ccc(OCCN(C)C)cc1)c1ccccc1 [TOT, 4-hydroxytamoxifen]
- ablation of transcriptional activity of the mutant [6]: could not
- ablation of transcriptional activity of the mutant [7]: could not

Molecule: C[C@]12CC[C@@H]3c4ccc(O)cc4C[C@@H](CCCCCCCCC[S+]([O-])CCCC(F)(F)C(F)(F)F)[C@H]3[C@@H]1CC[C@@H]2O (stereo partly shown) [fulvestrant]
- ablation of transcriptional activity of the mutant [6]: completely ablate
- ablation of transcriptional activity of the mutant [7]: completely ablate

B1: ERα LBD D538G mutant (crystallisation construct, 6×His-TEV tag removed) (domain or fragment, human)
chain: KRSKKNSLALSLTADQMVSALLDAEPPILYSEYDPTRPFSEASMMGLLTNLADRELVHMINWAKRVPGFVDLTLHDQVHLLECAWLEILMIGLVWRSMEHPGKLLFAPNLLLDRNQGKCVEGMVEIFDMLLATSSRFRMMNLQGEEFVCLKSIILLNSGVYTFLSSTLKSLEEKDHIHRVLDKITDTLIHLMAKAGLTLQQQHQRLAQLLLILSHIRHMSNKGMEHLYSMKCKNVVPLYGLLLEMLDAHRLHAPTS
notes: Unresolved residues were not included in the deposited structures; also called apo D538G; D538G-E2; source: E. coli BL21 (DE3), purified (Ni-NTA, TEV cleavage, Resource Q ion exchange)
- binding result [8]: binds

B2: SRC3 NRD: steroid receptor coactivator 3 nuclear receptor domain, human, amino acids 627–829, fluorescein labeled (protein)
chain: CSSDDRGHSSLTNSPLDSSCKESSVSVTSPSGVSSSTSGGVSSTSNMHGSLLQEKHRILHKLLQNGNSPAEVAKITAEATGKDTSSITSCGDGNVVKQEQLSPKKKENNALLRYLLDRDDPSDALSKELQPQVEGVDNKMSQCTSSTIPSSSQEKDPKIKTETSEEGSGDLDNLDAILGDLTSSDFYNNSISSNGSHLGTKQQ
modifications: 5-iodoacetamido fluorescein on cysteines, non-specific (4 cysteines; an average of 1.8–2 fluorescein molecules attached); left off: His tag (inferred from the labelling on the resin), end not stated,
- Kd ([9]; D538G apo (absence of E2)): 151 ± 20 nM
- Kd ([9]; D538G pre-saturated with E2 (1 µM ligand)): 3.65 ± 0.4 nM
- SRC3 binding curve plateau, of the maximum ([9]; D538G, absence of E2): approximately 60%
- Kd ([10]; Y537S apo (absence of E2)): 13.6 ± 2 nM
- Kd ([10]; Y537S pre-saturated with E2 (1 µM ligand)): 0.59 ± 0.1 nM
- SRC3 binding curve plateau, of the maximum ([10]; Y537S, absence of E2): approximately 60%
- SRC-3 NRD Kd [11]: no binding was detected
- SRC-3 NRD Kd ([11]; listed as SRC-3 NRD): No Recruitment
- Kd ([11]; WT saturated with E2 (1 µM ligand), read-out: SRC-3 NRD Kd): 2.67 ± 0.5 nM
